Measurements as given in the supplement of paper PMC9732359.
± gives the uncertainty stated by the source.

Assay: protein stability index of a GFP-peptide fusion (yeast GPS) (PSI 1-4); higher = more stable; sorted into four equal gates, so the index is relative within each strain
Outline: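 Tiled yeast protein peptides of 17 residues were each joined downstream of GFP, on plasmids that also express Cherry. The pooled library was maintained in yeast, and mid-log cultures in leucine-free medium were sorted into four equal gates on the GFP/Cherry ratio. Plasmids from every gate were amplified by PCR and sequenced on Illumina, with barcodes linking reads to strains. The protein stability index of a peptide is its gate-number-weighted read frequency summed over the gates.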

Row | Sequence | protein stability index (doa10∆) | protein stability index (pdr5∆) | protein stability index (san1∆) | protein stability index (ubr1∆)
1 | KHWTEKSLHEMNERDWR [PRP28] | 3.55 ± 0.21 | 3.02 ± 0.3 | 2.97 ± 0.2 | –
2 | PETCLFVSYFGKQIKST [YML103C/NUP188] | 2.61 ± 0.051 | 2.45 ± 0.039 | 2.27 ± 0.062 | 2.64 ± 0.037
3 | MVGQQYSSAPLRTVKEV [RPO21] | – | 1.92 ± 0.27 | – | –
4 | RKNFKMGPLYQNFAEFM [IRR1] | 1.33 ± 0.037 | 1.54 ± 0.06 | 1.72 ± 0.078 | 1.67 ± 0.038
5 | EDEEEFSIFNYFKMFPA [RPC34] | 3.27 ± 0.19 | 2.2 ± 0.1 | – | 2.46 ± 0.2
6 | LFGNNNTNNINNSSSGM [YGL172W/NUP49] | 3.38 ± 0.16 | 3.42 ± 0.14 | 3 ± 0.12 | 3.13 ± 0.13
7 | KHLEDNTLLVTGPFKVN [RPL6B] | 3.03 ± 0.18 | 2.53 ± 0.16 | 3.08 ± 0.093 | 1.78 ± 0.072
8 | LEEKILAKKTHKQELQD [SMC4] | 2.95 ± 0.093 | 3.21 ± 0.074 | 2.88 ± 0.072 | 2.85 ± 0.073
9 | SGLFVDVKKRTYEAIDV [RPB2] | 2.48 ± 0.12 | 3.28 ± 0.12 | 2.99 ± 0.1 | 3.14 ± 0.097
10 | EIPEGVTVSIKSRIVKV [RPL9B] | 1.29 ± 0.055 | 1.45 ± 0.075 | 1.44 ± 0.27 | 1.35 ± 0.11
11 | EYEKRNHGGSLGKYDLT [SRP68] | 2.81 ± 0.18 | 2.56 ± 0.15 | 2.15 ± 0.14 | 1.3 ± 0.14
12 | AFADRLGQYVQAHTLYN [PRE10] | 2.22 ± 0.085 | 1.95 ± 0.066 | 1.74 ± 0.12 | 2.03 ± 0.11
13 | IRRTFNIVNDFTPEEEA [SKP1] | 2.71 ± 0.099 | 3.28 ± 0.05 | 3.16 ± 0.05 | 3.08 ± 0.041
14 | YLIKLLGFEVKDQALIG [SIR2] | 1.92 ± 0.061 | 2.08 ± 0.06 | 2.1 ± 0.061 | 2.73 ± 0.087
15 | VESPDKNVRFRVLQLLA [YCG1] | 1.09 ± 0.098 | 1.4 ± 0.12 | 1.18 ± 0.13 | 1.65 ± 0.13
16 | PLIQNSMRTIMKANPAL [PRP8] | 2.4 ± 0.08 | 2.58 ± 0.22 | 1.56 ± 0.3 | 2.25 ± 0.17
17 | SPEESKARSPGIAKPNA [SIR4] | 3.48 ± 0.075 | 3.42 ± 0.09 | 3.09 ± 0.091 | 3.38 ± 0.066
18 | EFGADWYKVAKNVGNKS [SWI3] | 3.35 ± 0.1 | 3.34 ± 0.083 | 3.35 ± 0.048 | 3.3 ± 0.051
19 | SSKTRNVLNRIQELEDQ [ITC1] | 1.35 ± 0.088 | 1.16 ± 0.051 | – | 1.18 ± 0.058
20 | TLVHTRVKIANTSAATV [SSN2] | 2.35 ± 0.056 | 2.31 ± 0.046 | 2.32 ± 0.044 | 2.57 ± 0.035
21 | PHQSPDATRVFVNGVWH [RPB2] | 2.84 ± 0.061 | 3.05 ± 0.056 | 2.98 ± 0.047 | 3.15 ± 0.045
22 | VVIEKRRKKILNEIELD [GRR1] | 2.03 ± 0.14 | 2.77 ± 0.1 | 2.05 ± 0.17 | 2.96 ± 0.054

Row | Sequence | protein stability index (doa10∆) | protein stability index (pdr5∆) | protein stability index (san1∆) | protein stability index (ubr1∆)
23 | ANPKKLALMTAHSLSPK [CDC53] | 2.43 ± 0.052 | 2.78 ± 0.054 | 2.72 ± 0.057 | 2.32 ± 0.036
24 | DSSSQCIVDFTNPKLKS [YMR129W/POM152] | 2.2 ± 0.053 | 2.43 ± 0.058 | 2.33 ± 0.072 | 1.96 ± 0.044
25 | KLEEESKRGNDKKHFNN [RPC53] | 3.34 ± 0.098 | 3.15 ± 0.094 | 3.17 ± 0.094 | 3.28 ± 0.08
26 | TNEFVGSPSLTSPQYIP [NUT1] | 2.85 ± 0.057 | 3.04 ± 0.043 | 3.06 ± 0.035 | 2.93 ± 0.032
27 | GDFGGWFCPCHGSHYDI [RIP1] | 2.87 ± 0.15 | 3.11 ± 0.078 | 3 ± 0.058 | 3.18 ± 0.082
28 | RNVTKGDIVRMLETAGF [SMC3] | 2.81 ± 0.099 | 3.07 ± 0.12 | 2.76 ± 0.1 | 3.19 ± 0.07
29 | EWVKLHRLLQRALFRQL [RMP1] | 1.47 ± 0.25 | 1.58 ± 0.21 | 2.86 ± 0.14 | 2.16 ± 0.14
30 | KEGASTNWDDHAIIIFG [YMR153W/NUP53] | 2.86 ± 0.094 | 3.05 ± 0.075 | 3.27 ± 0.095 | 2.59 ± 0.059
31 | TRKAVRPQKLRASLVPG [RPL6B] | 2.26 ± 0.11 | 1.67 ± 0.11 | 2.9 ± 0.14 | 1.83 ± 0.046
32 | KQQEQLEQQKQPTGLLK [YMR153W/NUP53] | 3.35 ± 0.13 | 3.12 ± 0.14 | 2.97 ± 0.069 | 3.15 ± 0.065
33 | KAMDIPIGRHEELLAQY [SWP82] | 2.07 ± 0.044 | 2.25 ± 0.043 | 2.13 ± 0.068 | 2 ± 0.029
34 | SNDPDVNNTRRRVYNRV [BRN1] | 2.81 ± 0.14 | 3.52 ± 0.19 | 3 ± 0.14 | 3.69 ± 0.24
35 | FNSFRRFKSQFLYVLIP [QCR8] | 1.63 ± 0.1 | 1.69 ± 0.069 | 1.56 ± 0.12 | 1.4 ± 0.054
36 | ASPSAHTSSSDGNNEIF [RPN4] | 2.36 ± 0.063 | 2.73 ± 0.046 | 2.61 ± 0.067 | 3 ± 0.063
37 | VSLTQLRCVKYLQETAI [RPC82] | 1.82 ± 0.14 | 2.18 ± 0.1 | – | 3.1 ± 0.28
38 | DSLRKLYVDSESTSSTE [MTW1] | 2.86 ± 0.072 | 3.51 ± 0.1 | 3.16 ± 0.1 | 3 ± 0.068
39 | IKLVKQNDELKFQGVLE [RPC34] | 3.25 ± 0.13 | 3.53 ± 0.12 | 3.37 ± 0.051 | 2.58 ± 0.095
40 | ISEKDLVPKRCLFESLS [RPO31] | 2.59 ± 0.12 | 3.38 ± 0.15 | 2.94 ± 0.16 | 3.03 ± 0.095
41 | TKYERARILGTRALQIS [RPO26] | – | 1.36 ± 0.24 | – | 1.21 ± 0.13
42 | KDRYINGDKKVDIYSLP [YMR129W/POM152] | 3.15 ± 0.091 | 2.77 ± 0.094 | 3.03 ± 0.042 | 3.23 ± 0.069
43 | QLFSTFDRLNGNDTISK [SSN2] | 3.03 ± 0.15 | 3.02 ± 0.087 | 3.19 ± 0.076 | 2.96 ± 0.048
